Assay [1] concerns the target Arc(207-278) binding to TARPγ2 peptide (Rattus norvegicus, UniProt Q63053). To be noted: Figure S5C; chlorpromazine data not shown.
In assay [2] the target is T1, RnArc (207-370), Arc GAG domain, wild type (rat, UniProt Q63053 207-370).
T1 sequence (looked up): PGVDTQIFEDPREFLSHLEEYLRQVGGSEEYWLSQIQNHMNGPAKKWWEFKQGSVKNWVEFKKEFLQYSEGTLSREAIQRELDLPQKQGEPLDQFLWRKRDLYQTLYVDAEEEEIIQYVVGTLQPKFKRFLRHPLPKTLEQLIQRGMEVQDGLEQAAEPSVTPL
Nature of the assay: fluorescence polarisation.

The next assay deals with T2, Arc N-lobe (207-277) (rat, UniProt Q63053 207-277).
T2 sequence (looked up): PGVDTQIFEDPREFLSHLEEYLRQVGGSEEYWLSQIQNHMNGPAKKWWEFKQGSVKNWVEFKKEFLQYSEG
The assay can be described thus: pull-down.

For assay [3], the target named is T1, RnArc (207-370), Arc GAG domain, wild …. The assay can be described thus: pull-down.

No end group written: not given here.

For `CN1CCN(CCCN2c3ccccc3Sc3ccc(C(F)(F)F)cc32)CC1` [Trifluoperazine], the “inhibition of Arc N-lobe binding” value in assay [1] was “inhibited binding, but with lower affinity”.

B1: WAVE1 peptide (aa315-320) (peptide, UniProt Q8R5H6 315-320, looked up)
peptide: RTPVFV
As for B1, in assay [2], the binding result is on record as “binds”.

B2: GST-WAVE1 (aa301-343) (domain or fragment, mouse, UniProt Q8R5H6 301-343, looked up)
chain: TGLIENRPQSPAAGRTPVFVSPTPPPPPPPLPSALSTSSLRAS
On to B2, for which the binding result with Arc N-lobe (207-277) is on record as “binds”.

B3: GST-TARPγ2 cytoplasmic tail (203-323) (domain or fragment, mouse, UniProt O88602 203-323, looked up)
chain: DRHKQLRATARATDYLQASAITRIPSYRYRYQRRSRSSSRSTEPSHSRDASPVGVKGFNTLPSTEISMYTLSRDPLKAATTPTATYNSDRDNSFLQVHNCIQKDSKDSLHANTANRRTTPV
Consider B3, for which, in assay [2], the binding result was “binds”.

B4: GST-TARPγ2 fragment (203-247) (domain or fragment, mouse, UniProt O88602 203-247, looked up)
chain: {GST}-DRHKQLRATARATDYLQASAITRIPSYRYRYQRRSRSSSRSTEPS
As for B4, the binding result in assay [3] was “binds”.

Source of the values: paper PMC4409568 (Neuron, 2015).
